{
  "source": "patent US20070031331A1",
  "key": {"human CD20 (human) [1]": {"target": "human CD20 (human) (UniProt P11836)", "sequence (P11836 whole entry)": "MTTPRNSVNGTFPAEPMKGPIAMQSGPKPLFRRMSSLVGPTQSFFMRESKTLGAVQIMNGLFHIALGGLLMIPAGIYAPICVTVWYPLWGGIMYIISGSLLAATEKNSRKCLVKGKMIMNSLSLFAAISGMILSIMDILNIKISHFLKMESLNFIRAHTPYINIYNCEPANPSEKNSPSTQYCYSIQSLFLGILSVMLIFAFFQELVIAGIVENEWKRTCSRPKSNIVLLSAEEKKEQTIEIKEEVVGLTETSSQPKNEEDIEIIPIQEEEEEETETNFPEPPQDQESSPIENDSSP", "assay": "cell-based or functional assay"}, "human CD20 (human) [2]": {"target": "human CD20 (human) (UniProt P11836)", "assay": "Scatchard analysis, cold antibody against 125I-2H7.v16 on WIL2-S cells, n=3"}},
  "data": [
    {"substance": "RITUXAN® (rituximab) (antibody)", "values": [
      {"measurement": "ADCC: EC50(variant)/EC50(2H7.v16)", "setting": "human CD20 (human) [1]", "result": 5.3},
      {"measurement": "ADCC: EC50(variant)/EC50(RITUXAN®)", "setting": "human CD20 (human) [1]", "result": 1},
      {"measurement": "CDC: EC50(variant)/EC50(RITUXAN®)", "setting": "human CD20 (human) [1]", "result": 1},
      {"measurement": "Kd", "setting": "human CD20 (human) [2]", "result": 0.99, "unit": "nM"}
    ]}
  ]
}
